Assays:
[1] = target: native equine heart cytochrome c (Sigma C2506), P00004
[2] = target: partially acetylated equine heart cytochrome c (Sigma C4186), P00004
partially acetylated equine heart cytochrome c (Sigma C4186), P00004, sequence (P00004 2-105): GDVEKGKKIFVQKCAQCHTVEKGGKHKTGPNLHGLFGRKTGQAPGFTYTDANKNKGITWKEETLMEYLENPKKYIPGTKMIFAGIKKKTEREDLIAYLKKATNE

native equine heart cytochrome c (Sigma C2506), P00004, sequence (P00004 2-105): as above

B1: Strep-tag II-tagged DvH-FDH2 (recombinant formate dehydrogenase 2 from Desulfovibrio vulgaris Hildenborough, heterodimer of large and small subunit) (protein)
chain 1: MRMPRRTFIKLASASAGALAFAGLGQSLAPTVARAAELKIAKAKVTPSVCCFCAVGCGLLVYTDTQTGRSINIEGDPDHPTNEGTLCPKGASIWQTTERSKRVTKVLYRAPGAAAWEEKSWDWALPRIARKIKETRDATFELTNDKGQTVNRTRGIASVGSAAVDNEEGWLMQAMMRALGLVYIESHARIUHSSTVGALAESYGRGAMTNHWIDLKNSDVILIMGSNAAENHPISFKWVTRAQERGATLIHVDPRFTRTSAKADIHAHIRSGTDIAFFGGLIRYIMENDLFFRQYVVDYTNASYIVGADYGFADGLFTGFDAEKGTYNTKKWAFAADENGMTLKDPTLNDPRCVFQLMKAHYARYDRKTVSDVTGISEEQLATLWSTFASTGKPDRAGTILYAMGQCQHTVGVQNIRALSMIQLLLGNIGIAGGGVNALRGESNVQGTTDISLLCDNLSGYLPTPKASWATFDDYVKGTTPVDKDPKSANWWSNRGKYLASYMKSVYPTASHQDGYLWHPKVDDGKITDYSWLQIFERMSKGGFKGAFVWGQNPCAGGANAGKNRKAMETLDWMVVVNLFENESSLFWKGPGVDPAKVKTEVFFLPACMSVEKGGSIANSGRWLQWREPGPKPMGDSRSDGDIVLDLYDEIRKLYREEKGAFPEPVLALDTDYRTDGKYDHHKVAKTLNGKFLTDVTIGDKTYKAGQQVPGFAMLQADGSTTSGCWIFTGCYTDAGNMMARRDRTQTPEQAAIGLFPNWSYAWPANRRILYNRAAVDMTGKPFDPKRAVIAWNGEKWVGDVPDGGWKPGEKLPFIMIREGRGQLFGPGRVDGPFPEHYEPFESPLESHPFSKQRVNPTALAFSHEPKAVRDKRYPFICTTYRVTEQWQSGTMTRNTGWLKEMQPEGFCEISRELAKELGIANGDAVVLESLRGKVQVVAIVTPRLKPFKVMGEVMHEVGIPWQFGWGQHVGKGDSANLLSPSVGDPNTGIPETKVFMVNLRKA
chain 2: MRPLGSLPQGMRRVSRRHIREAYMNGKTFFIDQTRCTACRGCQAACKQWKKFGSIETRNTGSYQNPPDLGPSTFKLVRFNEVEVDGKLKWLFFPEQCRHCLEPPCKMVADALIPGAIVQDAETGAVLYTEKTKGLDYMEVRSACPYDIPRQDPATGLLTKCNMCIDRVQNGMLPACVKTCPTGTMHFGDRADMLELAQKRLGEVKKRSPAALLADSDLVRVLYLCELAPANYHSHMVAEADTSRIGPFSRRALLRLRPFA
[1]
  reduction of native equine cytochrome c in air at doubled formate concentration (electronic spectra): Doubling the formate concentration resulted in near-stoichiometric reduction in air
  reduction of native equine cytochrome c in the presence of formate (absorbance at 550 nm), anaerobic: stoichiometric reduction occurred under anaerobic conditions
  reduction of native equine cytochrome c in the presence of formate (absorbance at 550 nm), in air: ~80% underwent reduction in air
[2]
  reduction of acetylated equine cytochrome c during DvH-FDH2 catalysis (absorbance at 550 nm): DvH-FDH2 does not reduce acetylated cytochrome c

Reference: patent US20250357519
